What was measured:
DGI-2 = molecular target: T1, DGI-2 (Homo sapiens, UniProt Q15004); assay: ELISA analysis of phage on DGI-2 polypeptide (specific binding); conditions: for DGI-2 (OD): binding to DGI-2 polypeptide (specific binding), phage ELISA units read at 405 nm; for DGI-2/LDH (OD): ratio of specific binding to non-specific binding
T1 construct: encompassed the entire DGI-2 open reading frame (ORF); His-tag of vector pIVEX2.3-MCS (inferred from the vector and from the reverse primer lacking a stop codon); made in house; host or cells: cell-free in vitro translation (Rapid Translation System RTS, Roche; E. coli lysate)
T1 sequence (Q15004 1-111): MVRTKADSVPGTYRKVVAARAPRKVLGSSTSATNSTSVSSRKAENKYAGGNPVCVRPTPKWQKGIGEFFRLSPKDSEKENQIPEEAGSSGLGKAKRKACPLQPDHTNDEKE
How it was run: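 Recombinant DGI-2 from in vitro translation, LDH (non-specific) and controls were coated at 500 ng/well and blocked with 2% milk-PBS. Phage from individual clones bound for 2 hr at room temperature, then anti-M13-HRP with ABTS was read at 405 nm; a clone counted as positive at ≥2-fold over background.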

[1] = system: lactate dehydrogenase (LDH); assay: ELISA analysis of phage on LDH (irrelevant, non-specific target); type: binding; conditions: peptide binding to LDH polypeptide (non-specific binding); phage ELISA units read at 405 nm
How it was run: (§1)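 Phage from picked clones (M13KO7 helper) bound 2 hr at room temperature to wells coated overnight at 4 °C with 500 ng/well anti-ETAG antibody or LDH, milk-blocked. Detection with HRP-anti-M13 (1:3000) and ABTS at 405 nm; positive when A405 ≥2-fold over background.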

E-tag antibody = assay: ELISA analysis of phage on antibody raised against ETAG (positive control); conditions: peptide binding to E-tag antibody; phage ELISA units read at 405 nm
How it was run: as §1

Sequence	DGI-2 (OD) (DGI-2)	DGI-2/LDH (OD) (DGI-2)	LDH (OD) [1] [OD]	ETAG (OD) (E-tag antibody)
WVVALRRIRLGLRRGVECLL (DGI-2-20F-PP-D5; listed as Escherichia coli)	2.7	2.3	1.2	33.6
WWERFVWGRPVDDGVVVMAT (DGI-2-20R-3-B1; listed as Escherichia coli)	6.3	6.2	1.0	14.5
WWREWVDGSLRGGGGTVLKD (DGI-2-20R-3-A122; listed as Escherichia coli)	9.6	9.4	1.0	15.1
YAMSSRECGIRNSGLILSMW (DGI-2-20F-PP-C9; listed as Escherichia coli)	3.5	3.9	0.9	31.6
YDQVWNSLLAAVLGGQELVN (DGI-2-20F-3-D112; listed as Escherichia coli)	1.4	1.4	1.0	19.9
YGTAGLFLRRACTMSDPGDPLGRRGYTGWGVLWDEWVTGS (DGI-2-40F-3-C8; listed as Escherichia coli)	5.7	6.0	0.9	13.6
YTPASILTGFQRGYEGAGNG (DGI-2-20R-4-G7; listed as Escherichia coli)	4.7	3.9	1.2	11.6
